The target of one experiment is FcγRIIIA (UniProt P08637). The experiment can be described thus: ELISA.
For experiment [1], the target named is FcγRIIB (CD32B), soluble dimeric Fc fusion (human) (UniProt P31994). Put plainly: Biacore SPR. Background: In SPR one partner is held on a chip, and binding of the other changes the refractive index at the surface.
Experiment [2] addresses FcγRIIIA 158F (CD16A F158), soluble monomer (human) (UniProt P08637). Put plainly: Biacore SPR.
In experiment [3] the target is FcγRIIIA 158V (CD16A V158), soluble monomer (human) (UniProt P08637). Put plainly: Biacore SPR.
FcγRIIIA 158V (CD16A V158), soluble monomer (human), sequence (P08637 17-208 F176V): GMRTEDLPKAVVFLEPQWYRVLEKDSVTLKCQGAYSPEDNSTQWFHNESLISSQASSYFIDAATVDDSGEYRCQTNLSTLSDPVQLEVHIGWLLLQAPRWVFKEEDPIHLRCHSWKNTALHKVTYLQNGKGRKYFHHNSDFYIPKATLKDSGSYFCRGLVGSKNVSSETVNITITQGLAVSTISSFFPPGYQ
Experiment [4] has as its target FcγRIIIA 158F (CD16A F158), soluble monomer (human) (UniProt P08637). Put plainly: Biacore SPR; value on CD16A over value on CD32B.
Experiment [5] concerns the target FcγRIIIA 158V (CD16A V158), soluble monomer (human) (UniProt P08637). Put plainly: Biacore SPR; value on CD16A over value on CD32B.

FcγRIIIA, sequence (P08637 17-208 limits assumed): as the sequence (P08637 17-208 F176V) above, with V160F counted along it
FcγRIIIA 158F (CD16A F158), soluble monomer (human), sequence (P08637 17-208): as the sequence (P08637 17-208 F176V) above, with V160F counted along it
FcγRIIB (CD32B), soluble dimeric Fc fusion (human), sequence (P31994 43-217): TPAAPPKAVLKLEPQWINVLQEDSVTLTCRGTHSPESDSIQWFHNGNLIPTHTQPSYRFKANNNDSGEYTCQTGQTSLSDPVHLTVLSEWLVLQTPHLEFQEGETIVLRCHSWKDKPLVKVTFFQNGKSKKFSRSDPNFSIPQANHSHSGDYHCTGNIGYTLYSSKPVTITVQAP

In the experiment with FcγRIIIA, “ch4-4-20 P227S, K290E (from UniProt P01857 1-330) (antibody)” had an ELISA binding increase vs wt of 1 x.
Consider “Immunoglobulin with variant Fc region R292P V305I P396L (antibody)”, for which the values for the Koff WT/Koff mutant in experiment [1], in experiment [2] and in experiment [3] were 0.92, 1.9 and 1.85, respectively. Further, in experiment [4], the Ratio of Affinities CD16A F158/CD32B was 2.07. For the same substance, the Ratio of Affinities CD16A V158/CD32B in experiment [5] turned out to be 2.01.
On the same counts, the results for “Immunoglobulin with variant Fc region P396L D270E (antibody)” are 0.89, 1.65, 1.38, 1.85 and 1.55.
In turn, “ch4-4-20 V282E, V369I, L406F (from UniProt P01857 1-330) (antibody)” gave an ELISA binding increase vs wt in the experiment with FcγRIIIA of 0.5 x.
The same measure, in the same setting: under “ch4-4-20 Q347H, A339V (from UniProt P01857 1-330) (antibody)” stands 0.5 x; under “ch4-4-20 P247L (from UniProt P01857 1-330) (antibody)”, 0.5 x; under “ch4-4-20 S408I, V215I, V125L (from UniProt P01857 1-330) (antibody)”, 0.5 x.
Turning to “Immunoglobulin with variant Fc region R255L P396L (antibody)”, the Koff WT/Koff mutant is 2.22 in experiment [1], 1.39 in experiment [2] and 1.09 in experiment [3]. In addition, in experiment [4], the Ratio of Affinities CD16A F158/CD32B was 0.63. In experiment [5], the Ratio of Affinities CD16A V158/CD32B is 0.49.
Consider “ch4-4-20 P291S, P353Q (from UniProt P01857 1-330) (antibody)”, for which the ELISA binding decrease vs wt with FcγRIIIA amounted to 0.5 x.
In the case of “ch4-4-20 F275Y (from UniProt P01857 1-330) (antibody)”, the ELISA binding increase vs wt with FcγRIIIA worked out at 3 x.
As to “Immunoglobulin with variant Fc region R292P V305I (antibody)”, the Ratio of Affinities CD16A V158/CD32B in experiment [5] turned out to be 0.6.
The substance “ch4-4-20 S415I, L251F (from UniProt P01857 1-330) (antibody)” gave an ELISA binding increase vs wt with FcγRIIIA of 0.5 x.
With “ch4-4-20 P247L, A431V, S442F (from UniProt P01857 1-330) (antibody)”, the ELISA binding vs wt with FcγRIIIA was found to be 1 x.
In the case of “ch4-4-20 K326I, P396L (from UniProt P01857 1-330) (antibody)”, in the experiment with FcγRIIIA, the ELISA binding increase vs wt was found to be 2.9 x.
“ch4-4-20 S298N, S407R (from UniProt P01857 1-330) (antibody)” displayed an ELISA binding increase vs wt with FcγRIIIA of 0.5 x.
On the same count and under the same terms, in the case of “ch4-4-20 K334E, T359N, T366S, Q386R (from UniProt P01857 1-330) (antibody)” it was 1 x.
Take “Immunoglobulin with variant Fc region R292P V305I F243L P396L Y300L (antibody)”: the Koff WT/Koff mutant turned out to be 1.38 in experiment [1], 8.25 in experiment [2] and 10.1 in experiment [3].
“ch4-4-20 K246R, S298N, I377F (from UniProt P01857 1-330) (antibody)” yielded an ELISA binding increase vs wt with FcγRIIIA of 1 x.
In the case of “ch4-4-20 K326E, G385E (from UniProt P01857 1-330) (antibody)”, the ELISA binding increase vs wt with FcγRIIIA worked out at 0.5 x.
On to “Immunoglobulin with variant Fc region R292G (antibody)”, for which the Koff WT/Koff mutant in experiment [1] was found to be 0.25; in experiment [3], 1.54. The Ratio of Affinities CD16A V158/CD32B in experiment [5] worked out at 6.2.
In the experiment with FcγRIIIA, “ch4-4-20 T394M, V397M (from UniProt P01857 1-330) (antibody)” showed an ELISA binding increase vs wt of 0.5 x.
As to “ch4-4-20 P247L, I253N, K334N (from UniProt P01857 1-330) (antibody)”, in the experiment with FcγRIIIA, the ELISA binding increase vs wt was determined as 3 x.
Same read-out and setting: in the case of “ch4-4-20 V282M (from UniProt P01857 1-330) (antibody)” it was 1 x.
With “ch4-4-20 K246T, Y319F (from UniProt P01857 1-330) (antibody)”, the ELISA binding increase vs wt in the experiment with FcγRIIIA amounted to 1 x.
On the same count and under the same terms, in the case of “ch4-4-20 A378V, N390I, V422I (from UniProt P01857 1-330) (antibody)” it was 0.5 x.
Still for that read-out and setting: under “ch4-4-20 P396H (from UniProt P01857 1-330) (antibody)” stands 1 x; under “ch4-4-20 E216D, E345K, S375I (from UniProt P01857 1-330) (antibody)”, 0.5 x.
On the same count and under the same terms, under “ch4-4-20 D312E, K327N, I378S (from UniProt P01857 1-330) (antibody)” stands 0.5 x.
“ch4-4-20 R301C, M252L, S192T (from UniProt P01857 1-330) (antibody)” showed an ELISA binding decrease vs wt with FcγRIIIA of 0.5 x.
“ch4-4-20 S407I (from UniProt P01857 1-330) (antibody)” gave an ELISA binding increase vs wt in the experiment with FcγRIIIA of 0.5 x.
For the substance “Immunoglobulin with variant Fc region Q419H P396L D270E (antibody)”, the figures for the Koff WT/Koff mutant in experiment [1] and in experiment [3] were 0.68 and 1.64, respectively.
Consider “ch4-4-20 D399E, M428L (from UniProt P01857 1-330) (antibody)”, for which, in the experiment with FcγRIIIA, the ELISA binding decrease vs wt stood at 0.5 x.
In the experiment with FcγRIIIA, “ch4-4-20 S383N, N384K, T256N, V262L, K218E, R214I, K205E, F149Y, K133M (from UniProt P01857 1-330) (antibody)” came in with an ELISA binding increase vs wt of 0.5 x.
The same measure, in the same setting: in the case of “ch4-4-20 V279L, P395S (from UniProt P01857 1-330) (antibody)” it was 1 x; in that of “ch4-4-20 P343S, P353L, S375I, S383N (from UniProt P01857 1-330) (antibody)”, 0.5 x.
In turn, “ch4-4-20 I377N (from UniProt P01857 1-330) (antibody)” gave an ELISA binding decrease vs wt with FcγRIIIA of 0.5 x.
Same read-out and setting: under “ch4-4-20 R301H, K340E, D399E (from UniProt P01857 1-330) (antibody)” stands 0.5 x.
The substance “ch4-4-20 G385E, P247H (from UniProt P01857 1-330) (antibody)” came in with an ELISA binding increase vs wt in the experiment with FcγRIIIA of 1 x.
Same read-out and setting: in the case of “ch4-4-20 F243L, R255L, E318K (from UniProt P01857 1-330) (antibody)” it was 1 x; in that of “ch4-4-20 K288N, K326N (from UniProt P01857 1-330) (antibody)”, 1 x.
The same measure, in the same setting: in the case of “ch4-4-20 K246T, P396H (from UniProt P01857 1-330) (antibody)” it was 1 x; in that of “ch4-4-20 S219Y (from UniProt P01857 1-330) (antibody)”, 1 x.
For the substance “ch4-4-20 P291S, K288E, H268L, A141V (from UniProt P01857 1-330) (antibody)”, in the experiment with FcγRIIIA, the ELISA binding decrease vs wt is 0.5 x.
“ch4-4-20 V284A, F372L (from UniProt P01857 1-330) (antibody)”: the ELISA binding vs wt with FcγRIIIA came to 1 x.
“ch4-4-20 P247L, I377F (from UniProt P01857 1-330) (antibody)” displayed an ELISA binding increase vs wt in the experiment with FcγRIIIA of 1 x.
Still for that read-out and setting: in the case of “ch4-4-20 K334I (from UniProt P01857 1-330) (antibody)” it was 1 x; in that of “ch4-4-20 S400P (from UniProt P01857 1-330) (antibody)”, 1 x; in that of “ch4-4-20 H310Y, T289A, G337E (from UniProt P01857 1-330) (antibody)”, 0.5 x.
In the experiment with FcγRIIIA, “ch4-4-20 T335N, K370E, A378V, T394M, S424L (from UniProt P01857 1-330) (antibody)” came in with an ELISA binding increase vs wt of 0.5 x.
“Immunoglobulin with variant Fc region P247L N421K (antibody)”: the results for the Koff WT/Koff mutant in experiment [2] and in experiment [3] were 1.73 and 1.29, respectively.
The substance “ch4-4-20 K222N, T335N, K370E, A378V, T394M (from UniProt P01857 1-330) (antibody)” showed an ELISA binding increase vs wt with FcγRIIIA of 1 x.
On the same count and under the same terms, under “ch4-4-20 K370N, S440N (from UniProt P01857 1-330) (antibody)” stands 1 x; under “ch4-4-20 K222N (from UniProt P01857 1-330) (antibody)”, 1 x; under “ch4-4-20 H224L (from UniProt P01857 1-330) (antibody)”, 0.5 x.
The same measure, in the same setting: in the case of “ch4-4-20 D401V (from UniProt P01857 1-330) (antibody)” it was 0.5 x; in that of “ch4-4-20 K320E, K326E (from UniProt P01857 1-330) (antibody)”, 1 x.
Still for that read-out and setting: in the case of “ch4-4-20 D280E, S354F, A431D, L441I (from UniProt P01857 1-330) (antibody)” it was 3 x.
In the experiment with FcγRIIIA, “ch4-4-20 N315I, V379M, T394M (from UniProt P01857 1-330) (antibody)” gave an ELISA IIIA binding vs wt of 1 X and an ELISA binding increase vs wt of 1 x.
For the substance “Immunoglobulin with variant Fc region R292P F243L (antibody)”, the Ratio of Affinities CD16A V158/CD32B in experiment [5] is 39.4.
In the case of “ch4-4-20 K334N (from UniProt P01857 1-330) (antibody)”, in the experiment with FcγRIIIA, the ELISA binding increase vs wt came to 0.5 x.
Substance “ch4-4-20 F275I, K334N, V348M (from UniProt P01857 1-330) (antibody)” yielded an ELISA binding increase vs wt in the experiment with FcγRIIIA of 0.5 x.
